Article PMC11338637
One block for each molecule: values may come before it.

Legend:
[1] = target: Hir complex (Hir1/Hir2/Hir3/Hpc2) (S. cerevisiae) (UniProt P32479); assay: SPR
ctHir3 = ctHir3 (Chaetomium thermophilum, UniProt G0S723 1-2235); assay: fluorescence polarization

KD1 (heterogeneous ligand model, fast site of weak affinity) [1]: 196 nM
KD2 (heterogeneous ligand model, slow site of strong affinity) [1]: 18 nM
Molecule: yeastAsf1/humanH3.3/humanH4 (from UniProt P32447 1-279; P84243 1-136; P62805 1-103) (complex)

B1: ssDNA probe (ssDNA)
DNA: TAGGGAGTAATCCCCTTGGCGG
Kd (ctHir3): 531 nM

B2: ssRNA probe (ssRNA)
RNA: AAAACAAAUAUGCAUAUUAUCGAGAGG
Kd (ctHir3): 292 nM
